Biological target: inactive C105A human m-calpain heterodimer (C105A large subunit with truncated small subunit) (human, UniProt P17655 20-700; P04632 1-268, C105A, Ca2+-bound during hCSD1 binding. C-terminal His tag of the large subunit omitted. The ΔG2 small-subunit limits are not printed (they are in the cited Hata 2012 paper); the 184-residue small subunit of)
Test: BLI; GST-immobilized hCSD1; purified C105A-calpain from the affinity method in solution
Details: both partners purified

Kd: 1.7 nM
B1: N-terminal glutathione S-transferase-tagged human calpastatin domain 1 (domain or fragment, UniProt P20810 137-277, looked up)
chain: AVPVESKPDKPSGKSGMDAALDDLIDTLGGPEETEEENTTYTGPEVSDPMSSTYIEELGKREVTIPPKYRELLAKKEGITGPPADSSKPIGPDDAIDALSSDFTCGSPTAAGKKTEKEESTEVLKAQSAGTVRSAAPPQEK
notes: synthetic gene in pGEX-4T-1; GST is fused N-terminally through a linker; the tag can be removed by thrombin; also called GST-hCSD1; GST-tagged hCSD1; source: E. coli BL21(DE3), purified (GSTrap FF); not shown: GST, N-terminal, kept
